B1: hPLIC2 ubiquitin-like (UBL) domain (domain or fragment, human, UniProt Q9UHD9 33-107, looked up)
chain: IKVTVKTPKEKEEFAVPENSSVQQFKEAISKRFKSQTDQLVLIFAGKILKDQDTLIQHGIHDGLTVHLVIKSQNR
B2: GST-hRpn13^Pru (domain or fragment, human)
chain: TTSGALFPSLVPGSRGASNKYLVEFRAGKMSLKGTTVTPDKRKGLVYIQQTDDSLIHFCWKDRTSGNVEDDLIIFPDDCEFKRVPQCPSGRVYVLKFKAGSKRLFFWMQEPKTDQDEEHCRKVNEYLNNPPMPGALGASGSSGHELSAL

Tests used:
[1] = target: hRpn13 pleckstrin-like receptor for ubiquitin (Pru) domain (human, UniProt Q16186 1-150); experiment: ITC
M1 diubiquitin = M1 diubiquitin (UniProt P0CG48 1-76; P0CG48 1-76); experiment: pull-down

Chain of hRpn13 pleckstrin-like receptor for ubiquitin (Pru) domain (Q16186 1-150): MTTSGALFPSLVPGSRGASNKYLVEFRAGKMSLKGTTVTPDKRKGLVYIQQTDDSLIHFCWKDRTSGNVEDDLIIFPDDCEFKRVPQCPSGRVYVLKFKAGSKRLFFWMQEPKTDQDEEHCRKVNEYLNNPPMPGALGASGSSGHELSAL

Row | Binder | Kd [1] [µM] | binding result (M1 diubiquitin)
1 | B1 | 9.3 ± 0.5 | –
2 | B2 | – | binds
